Laboratory results published in publication PMC9733292 (Journal of Translational Medicine, 2022).

Target: T1, CD3 receptor (CD3ε subunit of the T cell receptor complex) (Homo sapiens, UniProt P07766)
T1 construct: also called CD3 antigen; CD3 receptors
Assay: flow cytometry on cells
Conditions: one partner purified

T1 sequence (P07766 23-207, one chain of several): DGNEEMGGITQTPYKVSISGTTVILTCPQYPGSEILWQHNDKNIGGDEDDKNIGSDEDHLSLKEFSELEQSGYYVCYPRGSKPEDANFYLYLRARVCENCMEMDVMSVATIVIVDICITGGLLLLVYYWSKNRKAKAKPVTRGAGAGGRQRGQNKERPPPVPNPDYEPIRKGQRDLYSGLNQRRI

Binder	binding result
scFv OKT3 wild-type (scFv, V domains shown, also called OKT3 single chain variable fragment) VH: not shown VL: QIVLTQSPAIMSASPGEKVTMTCSASSSVSYMNWYQQKSGTSPKRWIYDTSKLASGVPAHFRGSGSGTSYSLTISGMEAEDAATYYCQQWSSNPFTFGSGTKLEIN	binds
scFv OKT3 E129AzK (scFv, V domains shown, also called scFv OKT3 E129AzK variant) VH: not shown VL: QIVLTQSPAIMSASPGEKVTMTCSASSSVSYMNWYQQKSGTSPKRWIYDTSKLASGVPAHFRGSGSGTSYSLTISGMEAEDAATYYCQQWSSNPFTFGSGTKLEIN	binds
